Data taken from the supplement of paper PMC10567573.

B1: RHOBTB2 (parent)
chain: HHHHGRDFLLRAASFDVCESVDEA
B2: PPEF2 (parent)
chain: FIPSSHNDRDFLTRIFTEDRFAQD

Variants of: B1
Assay: protein stability index of a GFP-peptide fusion (GPS, HEK-293T) (PSI 1-6); higher = more stable
Details: c terminus: a fixed tail appended
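Note: lentivirally expressed fusions sorted by FACS into six bins by GFP to DsRed ratio, PSI derived from sequencing read proportions per bin multiplied by bin number.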

Protein stability index of substitutions, site by site:
D16: T 3.36, G 3.06, Y 1.67, R 2.48, Q 3.5, H 2.84, E 3.74
H3: G 3.9, Q 3.87, C 2.92, M 3.4, F 3.33, V 3.65, T 3.58, E 4.71, A 3.58, W 2.43, R 2.76
E19: N 3.54, V 2.49, L 1.56, R 2.73, M 2.44, H 2.9
V17: I 3.37, D 4.54, N 4, L 3.2, R 3.52
R6: Q 4.37, S 3.85, W 2.55, K 4.5, T 4.2, V 2.63, G 4.7, F 2.8, L 3.81
G5: R 4.3, Y 2.33, V 3.37, Q 4.21, W 2.21, N 3.95, C 2.63, P 4.44
L10: M 3.64, C 4.2, Q 4.86, P 4.18, T 4.8, W 2.34, I 4.21, V 4.06, H 4.69, F 2.96, R 4.55
H1: K 4.35, S 4.34, Q 4.26, P 4.71, N 4.53
A24: M 3.61, I 3.17, G 3.88, R 3.75, K 3.85, T 3.95, Q 3.86
C18: I 3.57, P 4.42, R 3.65, N 4.21, K 3.94, L 2.9, A 3.96, E 4.77, H 3.4
H4: Q 4.11, R 3.62, W 2.31, L 3.65, V 4.02, C 2.67, T 3.94
L9: R 4.3, D 5.28, C 4.48, T 4.53, I 4.06, P 4.81, V 4.33, K 4.35
R11: I 2.41, W 1.44, G 4.43, P 4.26, F 1.67, A 3.29, V 2.85, H 4.06, L 2.35, D 5.18, S 3.85
S14: G 3.15, H 3.57, R 2.62, T 3.47, M 3.05, P 4.22, D 4.13, F 3.03, N 4.5, Y 2.79, C 3.36
D22: Y 2.44, K 3.33, N 3.14, I 2.5, E 3.77, R 3.15, L 2.33, A 3, G 3, V 2.91
D7: Q 3.18, A 2.97, E 3.8, C 1.92, I 1.99, M 1.79, P 3.31, R 3.16, V 2.87, L 1.82, W 2.29, G 3.34
V21: K 4.5, E 4.51, A 3.8, G 4.17
F8: R 4.74, K 4.61, T 4.28, A 5.04, I 4.19, N 5.33, Y 3.57
F15: E 4.86, A 4.78, I 3.94, S 4.76, V 4.33, L 3.24, Q 4.1, D 5.01, T 4.74, P 4.37, H 4.11
A12: G 4.25, T 1.66, R 4.37, V 3.03, D 4.55, E 5.13, Y 2.08
A13: C 1.87, I 3.12, T 3.49, F 1.92, S 3.96, Q 3.84, K 4.09, V 3.14, E 4.38, H 3.75
E23: S 3.25, L 2.02, P 3.65, F 2.37, C 2.67, A 2.94, V 2.45, Y 2.83, D 3.39
S20: F 2.88, E 4.46, D 4.1, W 2.39, G 4.1, T 4, R 3.34
H2: L 3.93, I 3.92, Q 4.04, K 4.67, A 4.04, V 3.46, D 4.67

Variants of: B2
Assay: as above
Details: c terminus: a fixed tail appended

Protein stability index of substitutions, site by site:
F1: A 4.31, C 4.21, D 3.89, E 4.06, G 4.38, H 4.22, I 3.54, K 3.85, L 3.73, M 4.06, N 4.05, P 4.18, Q 4.19, R 3.75, S 4.4, T 4.21, V 3.88, W 3.04, Y 1.63
I2: A 3.29, C 1.46, D 4.44, E 3.85, F 3.32, G 2.62, H 2.06, K 2.92, L 2.96, M 2.07, N 1.96, P 1.78, Q 1.5, R 3.12, S 2.2, T 3.63, V 2.73, W 2.23, Y 3.38
P3: A 2.23, C 1.3, D 2.75, E 2.82, F 1.79, G 2.1, H 2.35, I 2.19, K 1.25, L 1.92, M 1.34, N 2.25, Q 1.92, R 1.72, S 1.91, T 1.99, V 1.97, W 2.3, Y 1.84
S4: A 2.19, C 1.39, D 2.11, E 1.63, F 1.99, G 2.53, H 1.76, I 3.25, K 2.29, L 2.02, M 1.31, N 3.06, P 1.8, Q 1.89, R 2.14, T 2.57, V 2.29, W 2.19, Y 1.94
S5: A 2.53, C 1.9, D 2.67, E 2.4, F 1.55, G 1.74, H 1.89, I 2.04, K 1.67, L 1.41, M 1.44, N 1.92, P 2.29, Q 2.55, R 2.03, T 2.17, V 2.09, W 1.58, Y 1.97
H6: A 1.71, C 1.61, D 2.56, E 1.99, F 1.21, G 2.07, I 2.44, K 2.23, L 2.23, M 1.09, N 1.47, P 1.49, Q 1.73, R 1.68, S 1.91, T 1.38, V 1.5, W 1.71, Y 2.21
N7: A 1.65, C 2.17, D 1.56, E 2.39, F 1.89, G 2.01, H 3.59, I 2.11, K 2.99, L 1.97, M 2.22, P 1.92, Q 2.46, R 2.33, S 1.73, T 2.17, V 1.8, W 1.6, Y 2.95
D8: A 1.89, C 2.03
